Series [1] can be described thus: Plasma stability assay, rat plasma. As to conditions: 37 °C; for remaining at 0.5 h, 1 μM / remaining at 2 h, 1 μM / remaining at 4 h, 1 μM: Sprague Dawley, read-out: Plasma stability (matrix: rat) % remaining; for remaining at 0.5 h, 1 μM: 30 min; for remaining at 2 h, 1 μM: 120 min. It is filed as in vitro ADME, rat (Sprague Dawley). As for the experimental part: (§1) The plasma stability assays were performed by Selvita SA (Krakow, Poland) following the protocol described in the Supporting Information. For the use of human plasma, consent was obtained from the subject or from the next of kin.
(§2) 9. Plasma stability assays
(§3) Protocol for full plasma assay: a stock solution of compounds 1-4 in DMSO was incubated in human (Anticoagulants: Na Heparin; Gender: Pooled; Cat. No: IPLANAH100ML; Lot: 37921; Supplier:
(§4) Innovative Research) and rat (Strain: Sprague Dawley; Anticoagulants: Na Heparin; Cat. No:
(§5) IGRTSDPLANAH100ML; Supplier: Innovative Research) plasma at a final concentration of 1 μM (final concentration of DMSO = 1 %). The samples were incubated at 37 °C with a shaking of 450 rpm. Aliquots of the samples were analyzed at time 0, 30 minutes, 2 and 4 hours by LC-MS/MS […]
(§6) The areas of the peak of the compounds 1-4 in the LC chromatogram were used to evaluate stability profile. The percentage of residual compounds 1-4 was calculated as the ratio between the area of the peak of the analyte and the area of the internal standard.
(§7) % residual compound = Area analyte ∙ 100
(§8) Table S7. LC-MS data of the stability assays in plasma extracts of compound 1.
(§9) Stability assays compound 1
(§10) Time Plasma stability Plasma stability S9 stability S9 stability
(§11) (min.) (matrix: rat) (matrix: human) Time (min.) (matrix: rat) (matrix: human) % remaining % remaining % remaining % remaining
(§12) Table S8. LC-MS data of the stability assays in plasma extracts of compound 2.
(§13) Stability assays compound 2

The nature of series [2]: Plasma stability assay, human plasma. It is filed as in vitro ADME. The following applies: 37 °C; for remaining at 0.5 h, 1 μM / remaining at 2 h, 1 μM / remaining at 4 h, 1 μM: both sexes, read-out: Plasma stability (matrix: human) % remaining; for remaining at 0.5 h, 1 μM: 30 min; for remaining at 2 h, 1 μM: 120 min. How it is done: as §1, §2, §3, §4, §5, §6, §7, §8, §9, §10, §11, §12, §13

Series [3] can be described thus: Liver S9 fraction stability assay, human. It is filed as in vitro ADME. As to conditions: 37 °C; for remaining at 0.5 h, 1 μM / remaining at 1.5 h, 1 μM: male, liver S9 fraction, read-out: S9 stability (matrix: human) % remaining; for remaining at 0.5 h, 1 μM: 30 min. As for the experimental part:
as §1
9. Plasma stability assays […]
Protocol for S9 fraction: a stock solution of compounds 1-4 in DMSO was incubated in human (male, pooled, commercially obtained from Xeno-tech lot: 2310104) and rat (male, pooled, commercially obtained from Xeno-tech (lot: 2210317)) S9 fraction at a final concentration of 1 μM (final concentration of DMSO = 0.5 %). The samples were incubated at 37 °C with a shaking of 450 rpm.
Aliquots of the samples were analyzed at time 0, 30 and 90 minutes by LC-MS/MS analysis.
as §6, §7, §8, §9, §10, §11, §12, §13

In series [4] the target is T1, bovine spleen Cathepsin B (Bos taurus, UniProt P07688).
T1 construct: bovine spleen Cathepsin B (SigmaAldrich C6286, ≥10 units/mg protein); purchased SigmaAldrich C6286; host or cells: bovine spleen (tissue-derived)
Briefly: Preliminary Cathepsin B cleavage assay for protocol validation, HPLC vs UHPLC-HRMS. The following applies: for % residual compound, HRMS: UHPLC-HRMS (Orbitrap) detection; for % residual compound, HPLC: analytical HPLC detection. It is filed as biochemical. How it is done:
The Cathepsin B cleavage assay was performed by incubating compounds 1–4 at 37 °C under gently shaking conditions in the presence of the active form of Cathepsin B. More specifically, 122.4 μL of an enzyme-activating solution (composed of 7.48 mg of L-cysteine dissolved in 2 mL of a buffer solution containing 20 mM NaOAc, 1 mM EDTA, pH 5.4 to give a final cysteine concentration of 30.88 mM) was mixed with 12.6 μL of enzyme stock solution, previously prepared by solubilization of bovine spleen Cathepsin B (SigmaAldrich C6286, ≥10 units/mg protein) in 1 mL of buffer solution (without cysteine) to give a concentration of enzyme stock solution of 12 units/mL. After the dilution, the final concentration of Cathepsin B was 1.12 u/mL. Then, the diluted enzyme solution was incubated at 37 °C for 15 min to activate Cathepsin B. After 15 min, 6 μL of 117 μM compound solution, previously prepared by diluting 5.85 μL of 1 mM stock solution of the compound in 44.15 μL of dry DMSO (giving a 117 μM solution), was added to the test tube and the cleavage assay solution was incubated at 37 °C under gentle shaking conditions. Sample aliquots (10 μL) were taken out at 15, 30 min, and 1, 2, 4, and 24 h and quenched with 10 μL of MeOH+1% formic acid. The solutions were then centrifuged for 10 min at 6000 rpm. Blank solutions were prepared for each compound by dilution of 6 μL of a 117 μM compound solution into 135 μL of an enzyme-activating solution. UHPLC-MS analyses were carried out using a Vanquish UHPLC System (Thermo Fisher Scientific) and Orbitrap Exploris 120 (Thermo Fisher Scientific). Thermo Scientific Xcalibur software was used to control the instruments and acquire the data. Freestyle 1.8 software was used for processing the data. UHPLC chromatographic separations were performed on a reversed-phase column Accucore C18 50 × 2.1 mm, 2.6 μm (Thermo Fisher Scientific). A gradient system was used with the mobile phase consisting of solvent A: H2O + 0.05% formic acid and solvent B: acetonitrile. The areas of the peak of compounds 1–4 in the extracted ion chromatogram were used to evaluate the kinetics of the cleavage process. The percentage of residual compound was calculated as the ratio between the areas of the peak of the full compound at the desired time point and in the blank analysis. %Residualcompound=areacompoundatthedesiredtimepoint/areacompoundintheblanksolution×100
Based on the similarity of the Cathepsin B recognized sequence GFLG to GPLG, we inferred that the latter could also be recognized by the same lysosomal enzyme. Therefore, a Cathepsin B cleavage assay for compound 1 was planned, and the experiment was designed to focus on a short incubation time (up to 4 h) to better mimic the fast transient and dynamic environment of drug clearance and activation generally occurring in in vivo conditions. An Orbitrap mass analyzer was chosen to analyze the final incubated solution due to its higher sensitivity compared to traditional HPLC methods, thereby allowing precise evaluation of the drug release kinetics even at low compound concentrations. At first, to validate the designed Orbitrap-protocol over the HPLC protocols generally reported in the literature, we initially performed the cleavage assay on compound 4 containing the VA sequence, for which the recognition by the Cathepsin B enzyme is well documented. ,− For instance, compound 4 was incubated at 37 °C with a sodium acetate buffer solution (final concentration of 4: 5 μM) containing the active form of the Cathepsin B enzyme, and diluted aliquots at 0–30–60–120 and 240 min were collected and analyzed by a UHPLC-Orbitrap instrument and, in parallel, by analytical HPLC. As shown in Figure S26 of the Supporting Information, the degradation of the VA-based compound 4 can be appreciated from both analyses; however, an expected remarkable difference between the two methods was noted regarding the final concentration of the compound 4 at the end of the experiment. […]

Read-outs that look alike come from different tables or passages of the source. Starred links: 1 amine or outer side, 2 acyl side, 3 side chain; linkers in the order of their positions; H or OH if unused. Non-standard residues stand in square brackets, D forms with d. Residues, ends and D or L forms follow the SMILES beside them. *: point of attachment. Paclitaxel(2'-OCO-DMEDA) = CC(=O)O[C@H]1C(=O)[C@@]2(C)[C@H]([C@H](OC(=O)c3ccccc3)[C@]3(O)C[C@H](OC(=O)[C@H](OC(=O)N(C)CCN(C)*)[C@@H](NC(=O)c4ccccc4)c4ccccc4)C(C)=C1C3(C)C)[C@]1(OC(C)=O)CO[C@@H]1C[C@@H]2O; Fmoc = O=C(OCC1c2ccccc2-c2ccccc21)*; PABC = O=C(OCc1ccc(N[*:1])cc1)[*:2]

As for `CC(=O)O[C@H]1C(=O)[C@@]2(C)[C@H]([C@H](OC(=O)c3ccccc3)[C@]3(O)C[C@H](OC(=O)[C@H](OC(=O)N(C)CCN(C)C(=O)OCc4ccc(NC(=O)CNC(=O)[C@H](CC(C)C)NC(=O)[C@@H]5CCCN5C(=O)CNC(=O)OCC5c6ccccc6-c6ccccc65)cc4)[C@@H](NC(=O)c4ccccc4)c4ccccc4)C(C)=C1C3(C)C)[C@]1(OC(C)=O)CO[C@@H]1C[C@@H]2O` [Compound 1, Fmoc-GPLG-PABC-diamine-PTX] (Fmoc-GPLG[PABC]-{Paclitaxel(2'-OCO-DMEDA)}), the “Plasma stability (matrix: rat) % remaining” value in series [1] (1 μM, 240 min (4 h)) turned out to be 100%. Besides, the share remaining at 0.5 h, 1 μM is 98.1% in series [1] (rat, plasma); 98.9% in series [2] (human, plasma); 104% in series [3] (human). Besides, the fraction remaining at 2 h, 1 μM in series [1] (rat, plasma) stood at 111%; in series [2] (human, plasma) it was 117%. Further, the amount remaining at 4 h, 1 μM in series [1] (rat, plasma, 240 min (4 h)) is 103%; in series [2] (human, plasma, 240 min (4 h)), 112%. In addition, the “Plasma stability (matrix: human) % remaining” value in series [2] (1 μM, 240 min (4 h)) is 100%. Further, in series [3] (human, 90 min (1.5 h)), the amount remaining at 1.5 h, 1 μM amounted to 95%.
In the case of `CC(=O)O[C@H]1C(=O)[C@@]2(C)[C@H]([C@H](OC(=O)c3ccccc3)[C@]3(O)C[C@H](OC(=O)[C@H](OC(=O)N(C)CCN(C)C(=O)OCc4ccc(NC(=O)CNC(=O)[C@H](CC(C)C)NC(=O)[C@H](Cc5ccccc5)NC(=O)CNC(=O)OCC5c6ccccc6-c6ccccc65)cc4)[C@@H](NC(=O)c4ccccc4)c4ccccc4)C(C)=C1C3(C)C)[C@]1(OC(C)=O)CO[C@@H]1C[C@@H]2O` [Compound 2, Fmoc-GFLG-PABC-diamine-PTX] (Fmoc-GFLG[PABC]-{Paclitaxel(2'-OCO-DMEDA)}), the amount remaining at 0.5 h, 1 μM turned out to be 92.1% in series [1] (rat, plasma); 102% in series [2] (human, plasma); 133% in series [3] (human). The share remaining at 2 h, 1 μM stood at 99% in series [1] (rat, plasma) and 104% in series [2] (human, plasma). Moreover, the share remaining at 4 h, 1 μM in series [1] (rat, plasma, 240 min (4 h)) was found to be 103%; in series [2] (human, plasma, 240 min (4 h)) it was 93.9%. The fraction remaining at 1.5 h, 1 μM in series [3] (human, 90 min (1.5 h)) was found to be 95.2%.
With `CC(=O)O[C@H]1C(=O)[C@@]2(C)[C@H]([C@H](OC(=O)c3ccccc3)[C@]3(O)C[C@H](OC(=O)[C@H](OC(=O)N(C)CCN(C)C(=O)OCc4ccc(NC(=O)[C@H](CCCNC(N)=O)NC(=O)[C@@H](NC(=O)OCC5c6ccccc6-c6ccccc65)C(C)C)cc4)[C@@H](NC(=O)c4ccccc4)c4ccccc4)C(C)=C1C3(C)C)[C@]1(OC(C)=O)CO[C@@H]1C[C@@H]2O` [Compound 3, Fmoc-VCit-PABC-diamine-PTX], the share remaining at 0.5 h, 1 μM is 123% in series [1], 102% in series [2] and 133% in series [3]. Also, the fraction remaining at 2 h, 1 μM in series [1] was 113%; in series [2], 98.3%. For the same molecule, the values for the fraction remaining at 4 h, 1 μM in series [1] (240 min (4 h)) and in series [2] (240 min (4 h)) were 118% and 77.1%, respectively. Further, the share remaining at 1.5 h, 1 μM in series [3] (90 min (1.5 h)) was found to be 95.2%.
On to `CC(=O)O[C@H]1C(=O)[C@@]2(C)[C@H]([C@H](OC(=O)c3ccccc3)[C@]3(O)C[C@H](OC(=O)[C@H](OC(=O)N(C)CCN(C)C(=O)OCc4ccc(NC(=O)[C@H](C)NC(=O)[C@@H](NC(=O)OCC5c6ccccc6-c6ccccc65)C(C)C)cc4)[C@@H](NC(=O)c4ccccc4)c4ccccc4)C(C)=C1C3(C)C)[C@]1(OC(C)=O)CO[C@@H]1C[C@@H]2O` [Compound 4, Fmoc-VA-PABC-diamine-PTX], for which the “% residual compound, HRMS” value in series [4] (30 min with Cathepsin B) was determined as 73.35%; in series [4] (60 min with Cathepsin B), 68.45%; in series [4] (120 min with Cathepsin B), 65.40%; in series [4] (240 min (4 h) with Cathepsin B), 63.70%. Further, the “% residual compound, HPLC” value in series [4] (30 min with Cathepsin B) was 25.11%; in series [4] (60 min with Cathepsin B) it was 20.48%; in series [4] (120 min with Cathepsin B) it was 13.68%. Further, the amount remaining at 0.5 h, 1 μM in series [1] (rat, plasma) is 96.1%; in series [2] (human, plasma) it was 101%; in series [3] (human), 107%. The share remaining at 2 h, 1 μM in series [1] (rat, plasma) stood at 104%; in series [2] (human, plasma), 106%. The share remaining at 4 h, 1 μM in series [1] (rat, plasma, 240 min (4 h)) was 108%; in series [2] (human, plasma, 240 min (4 h)), 107%. The “S9 stability (matrix: human) % remaining” value in series [3] (1 μM, 90 min (1.5 h)) stood at 79.75%. For the same molecule, the fraction remaining at 1.5 h, 1 μM in series [3] (human, 90 min (1.5 h)) is 79.7%.

The values are drawn from PMC12444563 (ACS Omega, 2025).
